Results as given in patent US20030224463A1 (Dana-Farber, published 2003).

Molecular target: T1, human MLH1 protein (hMLH1) (human, UniProt P40692 1-756, limits assumed)
T1 construct: Translated in vitro for the MBP-hPMS1 column assay
T1 sequence: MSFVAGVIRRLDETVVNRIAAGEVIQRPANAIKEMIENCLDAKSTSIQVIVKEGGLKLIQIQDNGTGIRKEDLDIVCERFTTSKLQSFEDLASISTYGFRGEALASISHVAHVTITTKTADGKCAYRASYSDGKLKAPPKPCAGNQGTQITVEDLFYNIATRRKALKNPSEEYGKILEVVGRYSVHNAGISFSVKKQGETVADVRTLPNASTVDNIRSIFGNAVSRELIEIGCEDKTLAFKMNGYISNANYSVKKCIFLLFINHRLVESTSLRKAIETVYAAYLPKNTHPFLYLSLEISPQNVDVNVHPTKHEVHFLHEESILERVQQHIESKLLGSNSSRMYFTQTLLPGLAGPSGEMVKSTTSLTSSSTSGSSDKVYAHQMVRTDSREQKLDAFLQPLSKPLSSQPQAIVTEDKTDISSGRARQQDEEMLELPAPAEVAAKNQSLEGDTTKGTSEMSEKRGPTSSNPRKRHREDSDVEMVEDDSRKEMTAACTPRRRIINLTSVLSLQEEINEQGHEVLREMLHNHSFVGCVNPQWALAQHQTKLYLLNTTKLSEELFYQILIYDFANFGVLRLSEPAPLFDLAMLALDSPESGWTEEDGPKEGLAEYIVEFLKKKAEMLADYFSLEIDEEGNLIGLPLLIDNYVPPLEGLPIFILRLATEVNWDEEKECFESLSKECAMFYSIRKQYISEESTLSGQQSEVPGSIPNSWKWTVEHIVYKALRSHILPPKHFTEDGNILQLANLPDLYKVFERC
Assay: yeast two-hybrid system

binding result: binds
B1: human PMS1 protein (hPMS1) (other)
chain: MERAESSSTEPAKAIKPIDRKSVHQICSGQVVLSLSTAVKELVENSLDAGATNIDLKLKDYGVDLIEVSDNGCGVEEENFEGLTLKHHTSKIQEFADLTQVETFGFRGEALSSLCALSDVTISTCHASAKVGTRLMFDHNGKIIQKTPYPRPRGTTVSVQQLFSTLPVRHKEFQRNIKKEYAKMVQVLHAYCIISAGIRVSCTNQLGQGKRQPVVCIGGSPSIKENIGSVFGQKQLQSLIPFVQLPPSDSVCEEYGLSCSDALHNLFYISGFISQCTHGVGRSSTDRQFFFINRRPCDPAKVCRLVNEVYHMYNRHQYPFVVLNISVDSECVDINVTPDKRQILLQEEKLLLAVLKTSLIGMFDSDVNKLNVSQQPLLDVEGNLIKMHAADLEKPMVEHQDQSPSLRIGEEKKDVSISRLREAFSLRHTTENKPHSPKTPEPRRSPLGQKRGMLSSSTSGAISDKGVLRSQKEAVSSSHGPSDPTDRAEVEKDSGHGSTSVDSEGFSIPDTGSHCSSEYAASSPGDRGSQEHVDSQEKAPETDDSFSDVDCHSNQEDTGCKFRVLPQPINLATPNTKRFKKEEILSSSDICQKLVNTQDMSASQVDVAVKINKKVVPLDFSMSSLAKRIKQLHHEAQQSEGEQNYRKFRAKICPGENQAAEDELRKEISKTMFAEMEIIGQFNLGFIITKLNEDIFIVDQHATDEKYNFEMLQQHTVLQGQRLIAPQTLNLTAVNEAVLIENLEIFRKNGFDFVIDENAPVTERAKLISLPTSKNWTFGPQDVDELIFMLSDSPGVMCRPSRVKQMFASRACRKSVMIGTALNTSEMKKLITHMGEMGHPWNCPHGRPTMRHIANLGVISQN
notes: Synthesized in vitro for the MBP column assay
